Data reported in PMC3098377, “CpG Islands Recruit a Histone H3 Lysine 36 Demethylase”.

T1: KDM2A ZF-CxxC domain (human, UniProt Q9Y2K7 544-648)
T1 sequence: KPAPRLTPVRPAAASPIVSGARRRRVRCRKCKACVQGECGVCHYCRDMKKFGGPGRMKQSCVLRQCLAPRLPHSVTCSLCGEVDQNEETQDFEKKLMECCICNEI

B1: short probe, CpGs methylated (dsDNA)
DNA 1: GTAGGCGGTGCTACACGGTTCCTGAAGTG
DNA 2: CACTTCAGGAACCGTGTAGCACCGCCTAC
modifications: CpG methylated (5mC); strands and method not stated
B2: short probe with two CpGs (dsDNA)
DNA 1: GTAGGCGGTGCTACACGGTTCCTGAAGTG
DNA 2: CACTTCAGGAACCGTGTAGCACCGCCTAC

Tests used:
KDM2A 1-747 (human) = assay: SPR; conditions: EMSA: 4% Ficoll 400, 20 mM Hepes pH 7.9, 150 mM KCl, 1 mM EDTA, 0.5 mM DTT, 25 ng/ul poly-dAdT, room temperature, 0.8% agarose gel 0.5x TBE 4 C; SPR: 10 mM …
KDM2A ZF-CxxC domain = biological target: T1, KDM2A ZF-CxxC domain; assay: EMSA; EMSA: 4% Ficoll 400, 20 mM Hepes pH 7.9, 150 mM KCl, 1 mM EDTA, 0.5 mM DTT, 25 ng/ul poly-dAdT, room temperature, 0.8% agarose gel 0.5x TBE 4 C; SPR: 10 mM Hepes pH 7.9, 150 mM NaCl, 1 mM DTT, further additive truncated in material, KDM2A 0-3 uM; conditions: protein: recombinant; tags: His (pET30b); label: 32P 5' end; blunt

| Molecule | Kd (KDM2A 1-747 (human)) | binding result (KDM2A ZF-CxxC domain) |
| --- | --- | --- |
| 75 bp probe, 1 CpG | 0.64 µM |  |
| 75 bp probe, 6 CpG | 0.56 µM |  |
| B1 |  | no binding |
| B2 |  | binds |
